Data: patent US20150218281A1 (Ablynx, published 2015)

T1: full length human OX40L expressed on CHO cells (human, UniProt P23510 1-183)
T1 sequence: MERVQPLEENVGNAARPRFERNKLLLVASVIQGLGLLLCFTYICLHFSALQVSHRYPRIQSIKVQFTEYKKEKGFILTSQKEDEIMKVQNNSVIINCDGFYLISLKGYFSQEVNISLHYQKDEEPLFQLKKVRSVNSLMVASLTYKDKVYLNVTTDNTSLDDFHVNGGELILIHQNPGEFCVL

T2: recombinant human OX40L (extracellular domain, R&D Systems) (human, UniProt P23510 51-183)
T2 construct: also called hOX40L; rec. hOX40L
T2 sequence: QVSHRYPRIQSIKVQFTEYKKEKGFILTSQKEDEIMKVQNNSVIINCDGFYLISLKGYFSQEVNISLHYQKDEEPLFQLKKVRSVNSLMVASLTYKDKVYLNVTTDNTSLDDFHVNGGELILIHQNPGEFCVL

T3: cynomolgus OX40L expressed on CHO cells (cynomolgus monkey, UniProt P23510 1-183 (human entry))
T3 construct: also called cynoOX40L; CHO-cynoOX40L
T3 chain: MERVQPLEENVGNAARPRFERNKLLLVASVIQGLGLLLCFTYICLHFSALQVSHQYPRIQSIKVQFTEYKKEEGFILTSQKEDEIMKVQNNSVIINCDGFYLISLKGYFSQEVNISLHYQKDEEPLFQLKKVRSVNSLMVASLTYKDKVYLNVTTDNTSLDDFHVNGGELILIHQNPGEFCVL

T4: biotinylated hOX40L (R&D Systems, biotinylated in house) (human, UniProt P23510 51-183, biotinylated with Sulfo-NHS-LC-Biotin, sites not stated)
T4 construct: same bought protein as m10, biotinylated; also called biotinylated OX40L
T4 sequence: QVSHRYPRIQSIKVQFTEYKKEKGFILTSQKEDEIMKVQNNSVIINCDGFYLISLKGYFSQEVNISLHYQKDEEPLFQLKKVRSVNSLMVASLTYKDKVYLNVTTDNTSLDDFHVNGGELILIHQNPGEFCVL


Legend:
[1] = target: T1, full length human OX40L expressed on …; test: cell-based or functional assay
[2] = target: T1, full length human OX40L expressed on …; test: competition FACS with hOX40/Fc on CHO-hOX40L
Protocol: The competition FACS assay was performed as described in example 2.

[3] = target: T2, recombinant human OX40L (extracellular …); test: SPR, after second injection of buffer HBS-EP+
Protocol: (§1) In addition, it was investigated to what extend the 7 anti-OX40L Nanobodies have a different or identical or overlapping epitope. Standard conditions were as described above. […] 1300 RU. A dual injection was performed at 10 μl/min for 2 min, starting with 500 nM of the first Nanobody, followed by 500 nM of the second Nanobody. After 10 min dissociation, regeneration of the surface was performed by injection of 50 mM NaOH for 5-20 sec at 100 μl/min.

[4] = target: T1, full length human OX40L expressed on …; test: FACS binding to CHO cells, anti-c-myc detection
Protocol: (§2) Transfection of CHO K1 with the respective expression plasmid DNA and selection of clones with high expression levels was performed as described in Example 1. Binding of the Nanobodies to the cell surface expressed OX40L was assessed by FACS analysis of cells as described below.
(§3) After washing bound Nanobodies were detected in FACSArray™ using mouse anti-c-myc and PE conjugated goat anti-mouse IgG.

[5] = target: T3, cynomolgus OX40L expressed on CHO cells; test: FACS binding to CHO cells, anti-c-myc detection
Protocol: as §2, §3

[6] = target: T2, recombinant human OX40L (extracellular …); test: SPR, second injection after competitor OX40L01B11
Protocol: as §1

[7] = target: T2, recombinant human OX40L (extracellular …); test: SPR, second injection after competitor OX40L01E07
Protocol: as §1

[8] = target: T2, recombinant human OX40L (extracellular …); test: SPR, second injection after competitor OX40L01E10
Protocol: as §1

[9] = target: T2, recombinant human OX40L (extracellular …); test: SPR, second injection after competitor OX40L15B07
Protocol: as §1

[10] = target: T2, recombinant human OX40L (extracellular …); test: SPR, second injection after competitor OX40L18E09
Protocol: as §1

[11] = target: T2, recombinant human OX40L (extracellular …); test: SPR, second injection after competitor OX40L19A07
Protocol: as §1

[12] = target: T2, recombinant human OX40L (extracellular …); test: SPR, second injection after competitor OX40L19D08
Protocol: as §1

[13] = target: T4, biotinylated hOX40L (R&D Systems, …); test: AlphaScreen, 31 pM biotinylated hOX40L + 80 pM OX40/Fc
Protocol: (§4) Next, streptavidin donor beads were added and incubated for an additional 1 hour. Fluorescence was measured by reading plates on the EnVision Multilabel Plate Reader using an excitation wavelength of 680 nm and an emission wavelength of 520 nm.

[14] = target: hTNF-alpha (human, UniProt P01375 77-233); test: competition ELISA on neutravidin captured biotinylated hOX40L
Protocol: The binding of OX40L blocking Nanobodies to other TNF family members was tested in a competition ELISA.
Detection was done using sTMB (SDT Reagents, Baesweiler, Germany), the reaction was stopped with 1M HCl and absorbance was determined at 450 nm.

[15] = target: T4, biotinylated hOX40L (R&D Systems, …); test: AlphaScreen, 120 pM biotinylated hOX40L + 0.2 nM hOX40/Fc
Protocol: as §4

[16] = target: T1, full length human OX40L expressed on …; test: competition FACS, 3.1 nM hOX40/Fc on hOX40L expressing cells

Sequence of hTNF-alpha (P01375 77-233 limits assumed): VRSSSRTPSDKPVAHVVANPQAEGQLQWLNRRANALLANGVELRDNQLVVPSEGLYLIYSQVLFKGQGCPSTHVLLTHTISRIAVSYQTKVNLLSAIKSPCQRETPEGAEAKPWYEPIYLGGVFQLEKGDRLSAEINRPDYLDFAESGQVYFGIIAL

Row | Binder | IC50, IL4 production, T-cell activation assay, donor 1 [1] [nM] | IC50, IL4 production, T-cell activation assay, donor 2 [1] [nM] | IC50, IL4 production, T-cell activation assay, donor 3 [1] [nM] | IC50 [2] [nM] | Binding Level sample 2 (RU) [3] [RU] | Binding Level sample 2 - sample 1 (RU) [3] [RU] | EC50 [4] [nM] | EC50 [5] [nM] | Binding Level sample 2 (RU) [6] [RU] | Binding Level sample 2 - sample 1 (RU) [6] [RU] | Binding Level sample 2 (RU) [7] [RU] | Binding Level sample 2 - sample 1 (RU) [7] [RU] | Binding Level sample 2 (RU) [8] [RU] | Binding Level sample 2 - sample 1 (RU) [8] [RU] | Binding Level sample 2 (RU) [9] [RU] | Binding Level sample 2 - sample 1 (RU) [9] [RU] | Binding Level sample 2 (RU) [10] [RU] | Binding Level sample 2 - sample 1 (RU) [10] [RU] | Binding Level sample 2 (RU) [11] [RU] | Binding Level sample 2 - sample 1 (RU) [11] [RU] | also measured
1 | OX40L15B07 (VHH, monovalent Nanobody from E. coli; not shown: C-terminal c-myc and His6 tag) VHH: EVQLVESGGGLVQAGGSLRLSCAASRSIGRLDRMGWYRHRTGEPRELVATITGGSSINYGDFVKGRFTISIDNAKNTVYLQMNNLKPEDTAVYYCNFNKYVTSRDTWGQGTQVTVSS | 236 | 249 | 73 | 2 | 155 | -40 | 2.43 | 3.23 | 324 | -9 | 198 | 12 | 237 | 17 | 198 | 5 | 189 | 2 | 200 | 26 | Binding Level sample 2 (RU) [12]: 217 RU; Binding Level sample 2 - sample 1 (RU) [12]: -7 RU; IC50 [13]: 0.125 nM; binding result [14]: no binding (tested: starting from 100 fold molar excess); IC50 [15]: 0.3 nM; IC50 [16]: 1.61 nM
2 | OX40L01B11 (VHH, monovalent Nanobody from E. coli; not shown: C-terminal c-myc and His6 tag) VHH: EVQLVESGGGLVQAGGSLRLSCVASGRSFSTYIMGWFRQAPGKEREFVATISRSGITTRSADSVKGRFTISRDNAKNTVYLQMNSLKPEDTAVYYCAAGPYVEQTLGLYQTLGPWDYWGQGTQVTVSS | 230 | 188 | 80 | 5 | 383 | -57 | 2.94 | 3.39 | 380 | 7 | 399 | 205 | 296 | 76 | 259 | 61 | 238 | 48 | 358 | 180 | IC50, IL4 production, T-cell activation assay, donor 4 [1]: 220 nM; Binding Level sample 2 (RU) [12]: 433 RU; Binding Level sample 2 - sample 1 (RU) [12]: 205 RU; IC50 [13]: 0.278 nM; binding result [14]: no binding (tested: starting from 100 fold molar excess); IC50 [15]: 0.375 nM; IC50 [16]: 5.61 nM
3 | OX40L01E07 (VHH, monovalent Nanobody from E. coli; not shown: C-terminal c-myc and His6 tag) VHH: EVQLVESGGGLVQAGGSLRLSCAASGRTFSSIYAKGWFRQAPGKEREFVAAISRSGRSTSYADSVKGRFTISRDNAKNTVYLQMNSLKPEDTAVYYCAAVGGATTVTASEWDYWGLGTQVTVSS | 260 | 320 | 125 | 11 | 212 | -9 | 4.03 | 4.9 | 486 | 194 | 192 | 11 | 289 | 62 | 252 | 55 | 238 | 45 | 240 | 63 | IC50, IL4 production, T-cell activation assay, donor 4 [1]: 169 nM; Binding Level sample 2 (RU) [12]: 252 RU; Binding Level sample 2 - sample 1 (RU) [12]: 23 RU; IC50 [13]: 0.229 nM; IC50 [15]: 0.423 nM; IC50 [16]: 8.89 nM
